Our source for the stoichiometry N values is paper PMC2151178.

The experiment has as its target DdUnc104 (Dictyostelium Unc104), 245-kD kinesin (Dictyostelium discoideum (endogenous in wild-type cells)) (UniProt Q9NGQ2). Kind of experiment: SEC + other: sucrose density gradient velocity sedimentation.

As usually defined, the stoichiometry N is a count of units in the complex or per binding partner.

As to “DdUnc104 (Dictyostelium Unc104), 245-kD kinesin, Q9NGQ2 1-2205”, the stoichiometry N turned out to be 2.
